Molecular target: GLS1 (endogenous, both KGA and GAC) (UniProt D3Z7P3)
Experiment: IP of endogenous GLS1, blot PDZD8
Details: reference: wild type PDZD8; sites T527

- binding against the reference: weaker
Substance: PDZD8 (from UniProt Q8NEN9) T527A

— article PMC11442470
